{"source": "patent US20250026813A1", "about": "(published 2025)", "key": {"[1]": {"biological_target": "T1, Receptor binding domain (Neil King, University of Washington) (SARS-CoV-2, UniProt P0DTC2 328-531)", "test": "SPR (Biacore 8K), antibody captured by anti-hFc, RBD as analyte"}, "[2]": {"biological_target": "RBD domain of the SARS-CoV-2 spike protein (Acro Biosystems SPD-C52H3), His tag (SARS-CoV-2, UniProt P0DTC2 319-537)"}, "[3]": {"biological_target": "SARS-CoV-2 spike protein receptor binding domain (isolated RBD) (SARS-CoV-2, UniProt P0DTC2 319-541)", "test": "SPR (Biacore 8K), IgG1 captured via anti-hFc, RBD as analyte, 1:1 fit"}, "[4]": {"biological_target": "SARS-CoV-2 spike protein receptor binding domain (RBD) (SARS-CoV-2, UniProt P0DTC2 319-541)", "test": "HT-SPR (Carterra LSA); IgG captured by anti-human Fc, RBD as analyte, 1:1 fit"}, "[5]": {"biological_target": "T1, Receptor binding domain (Neil King, …)"}, "[6]": {"biological_target": "SARS-CoV-2 spike protein on live virus SARS-CoV-2 Victoria/01/2020 (SARS-CoV-2, UniProt P0DTC2 14-1273)", "test": "cell-based or functional assay"}, "[7]": {"biological_target": "SARS-CoV-2 S2 spike domain (Sino Biological) (SARS-CoV-2, UniProt P0DTC2 686-1213)"}, "[8]": {"biological_target": "SARS-CoV-2 spike protein trimer, wild type (FIG. 2A sequence) with C-terminal trimerisation domain (SARS-CoV-2, UniProt P0DTC2 14-1213)"}}, "note": "Values joined by “and” are separate entries in the source; they are usually repeats but may differ in a detail not shown here. Identical values can stand only once.", "data": [{"binder": "IMPI-013 (antibody, V domains shown, also called IMP-013) VH: EVQLVESGGGLVQPGRSLRLSCAASGFTFDDYAMHWVRQTPGKGLEWVSGISWNSGSIGYADSVKGRFTISRDNAKNSLYLQMNSLRAEDTALYYCTKDLGLGIGFYYGLDVWGQGTTVTVSS VL: AIQMTQSPSSLSTSVGDRVTITCRASQGIRNDLGWYQLKPGKAPKLLIYDASTLQSGVPSRFSGSGSGTDFTLTISSLEPEDLATYYCLHHYTYPWTFGHGTKVELK", "values": [{"measurement": "binding result", "setting": "[1]", "value": "no binding (tested: up to 100 nM analyte)"}]}, {"binder": "IMPI-002 (antibody, V domains shown) VH: EVQLVESGGGLIQPGGSLRLSCAASGVTVSSNYMSWVRQAPGKGLEGVSVIYSGGSTYYADSVKGRFTISRDNSKNTLYLQMNSLRAEDTAVYYCARDTVVYGMDVWGQGTTVTVSS VL: DIQLTQSPSFLSASVGDRVTITCWASQGISSYLAWYQQKPGKAPKLLIYAASTLQSGVPSRFSGSGSGTEFTLTISSLQPEDFATYYCQQLNSYPLTFGGGTKVEIK", "values": [{"measurement": "HTRF deltaF", "setting": "[2]", "value": 172, "unit": "deltaF"}]}, {"binder": "IMPI-052 (antibody, V domains shown) VH: EVQLVESGGGLIQPGGSLRLSCAASGVTVSSNYMNWVRQAPGKGLEGVSVIYSGGTTYYADSVKGRFTISRDNSKNTLYLQMNSLRAEDTAVYYCARDTVVYGMDVWGQGTTVTVSS VL: DIQLTQSPSFLSASVGDRVTITCWASQGISSYLAWYQQKPGKAPKLLIYTASTLQSGVPSRFSGSGSGTEFTLTISSLQPEDFATYYCQQLNSYPLTFGGGTKVEIK", "note": "[IMPI-052, listing 1 of 3 here]", "values": [{"measurement": "Kd", "setting": "[3]", "value": 13.2, "unit": "nM"}]}, {"binder": "IMPI-052 (antibody, V domains shown) VH: EVQLVESGGGLIQPGGSLRLSCAASGVTVSSNYMNWVRQAPGKGLEGVSVIYSGGTTYYADSVKGRFTISRDNSKNTLYLQMNSLRAEDTAVYYCARDTVVYGMDVWGQGTTVTVSS VL: DIQLTQSPSFLSASVGDRVTITCWASQGISSYLAWYQQKPGKAPKLLIYTASTLQSGVPSRFSGSGSGTEFTLTISSLQPEDFATYYCQQLNSYPLTFGGGTKVEIK", "note": "[IMPI-052, listing 2 of 3 here]", "values": [{"measurement": "HTRF deltaF", "setting": "[2]", "value": 229, "unit": "deltaF"}]}, {"binder": "IMPI-052 (antibody, V domains shown) VH: EVQLVESGGGLIQPGGSLRLSCAASGVTVSSNYMNWVRQAPGKGLEGVSVIYSGGTTYYADSVKGRFTISRDNSKNTLYLQMNSLRAEDTAVYYCARDTVVYGMDVWGQGTTVTVSS VL: DIQLTQSPSFLSASVGDRVTITCWASQGISSYLAWYQQKPGKAPKLLIYTASTLQSGVPSRFSGSGSGTEFTLTISSLQPEDFATYYCQQLNSYPLTFGGGTKVEIK", "note": "[IMPI-052, listing 3 of 3 here]", "values": [{"measurement": "Kd", "setting": "[4]", "value": 24.1, "unit": "nM"}]}, {"binder": "IMPI-059 (antibody, V domains shown) VH: EVQLVESGGGLIQPGGSLRLSCAASGFTVSSIYMSWVRQAPGKGLEWVSIIYSRGSTDYADSVKGRFTISRDISKNTLYLQMNSLRAEDTAVYYCARDGTMVRGVHAFDIWGQGTMVTVSS VL: DIQMTQSPPSLSASIGDRVTITCQASQDISNYLNWYQQKPGKAPKLLIYDASNLETGVPSRFSGSGSGTDFTLTISNLQPEDIVTYYCQQYDNLPSSFGQGTKLEIK", "values": [{"measurement": "Kd", "setting": "[5]", "value": "< 1", "unit": "nM"}, {"measurement": "IC50, live virus foci (plaque) reduction neutralisation assay on Vero cells", "setting": "[6]", "value": 0.026, "unit": "nM"}]}, {"binder": "IMPI-063 (antibody, V domains shown) VH: EVQLVESGGGVVRPGGSLRLSCAASGFTFDDYGMSWVRQAPGKGLEWVSGIYWNGGSTGYADSVKGRFTISRDNAKNSLYLQMNSLRAEDMALYYCARGVGATDYWGQGTLVTVSS VL: EIVLTQSPGTLSLSSGERATLACRASESVRGSFLAWYQQKPGQAPRLLIYGASRRATGIPDRFSGSGSGTDFTLTISRLEPEDFAVYYCQQYGNSPMCSFGQGTKLEIK", "note": "[IMPI-063, listing 1 of 2 here]", "values": [{"measurement": "Kd", "setting": "[7]", "value": 0.845, "unit": "nM"}, {"measurement": "koff", "setting": "[7]", "value": 7.77, "unit": "s⁻¹"}, {"measurement": "kon", "setting": "[7]", "value": "9.19e+09", "unit": "M⁻¹ s⁻¹"}, {"measurement": "Kd", "setting": "[8]", "value": 2.29, "unit": "nM"}, {"measurement": "koff", "setting": "[8]", "value": 0.000939, "unit": "s⁻¹"}, {"measurement": "kon", "setting": "[8]", "value": 411000, "unit": "M⁻¹ s⁻¹"}]}, {"binder": "IMPI-063 (antibody, V domains shown) VH: EVQLVESGGGVVRPGGSLRLSCAASGFTFDDYGMSWVRQAPGKGLEWVSGIYWNGGSTGYADSVKGRFTISRDNAKNSLYLQMNSLRAEDMALYYCARGVGATDYWGQGTLVTVSS VL: EIVLTQSPGTLSLSSGERATLACRASESVRGSFLAWYQQKPGQAPRLLIYGASRRATGIPDRFSGSGSGTDFTLTISRLEPEDFAVYYCQQYGNSPMCSFGQGTKLEIK", "note": "[IMPI-063, listing 2 of 2 here]", "values": [{"measurement": "binding result", "setting": "[1]", "value": "no binding (tested: up to 100 nM analyte)"}]}, {"binder": "IMPI-004 (antibody, V domains shown) VH: QVQLVESGGGVVQPGRSLRLSCAASGFTFSSYGMHWVRQAPGKGLEWVAVIWYDGGNKYYADSVKGRFTISRDNSKNTLYLQMNSLRAEDTAVYYCARVNVLMGYGMDVWGQGTTVTVSS VL: EIVLTQSPGTLSLSPGDKATLSCRASQSIISSFLAWYQQKPGQAPRLLIYGASSRATGIPDRFSGSGSGTDFTLTISRLEPEDFAVYYCQQYGSSLTFGGGTKVEIK", "values": [{"measurement": "IC50, live virus foci (plaque) reduction neutralisation assay on Vero cells", "setting": "[6]", "value": "13 ng/ml and 86 pM"}]}]}
